Data from article PMC3269792.

Tests used:
[1] = molecular target: KCNQ1-KCNQ1 dimer (QQ) of the tandem EQQ construct with I145C in the distal KCNQ1 subunit (human); assay: cross-linking
[2] = molecular target: KCNQ1-KCNQ1 dimer (QQ) of the tandem EQQ construct with I145C in the proximal KCNQ1 subunit (human); assay: cross-linking

percent cross-linking [1]: 50%
percent cross-linking [2]: 90%
Substance: KCNE1 K41C subunit of the tandem EQQ construct, cut off by HRV-3C protease (natural protein)
